What was measured:
[1] = test system: CD2AP with the cathepsin L cleavage site LSAAE deleted
[2] = test system: full-length CD2AP, GFP-tagged (GFP-CD2AP fusion protein, 98 kD)
[3] = test system: C-terminal FLAG-tagged CD2AP (71 kD)

Chain of purified FLAG-CD2AP (chain, as listed by the source): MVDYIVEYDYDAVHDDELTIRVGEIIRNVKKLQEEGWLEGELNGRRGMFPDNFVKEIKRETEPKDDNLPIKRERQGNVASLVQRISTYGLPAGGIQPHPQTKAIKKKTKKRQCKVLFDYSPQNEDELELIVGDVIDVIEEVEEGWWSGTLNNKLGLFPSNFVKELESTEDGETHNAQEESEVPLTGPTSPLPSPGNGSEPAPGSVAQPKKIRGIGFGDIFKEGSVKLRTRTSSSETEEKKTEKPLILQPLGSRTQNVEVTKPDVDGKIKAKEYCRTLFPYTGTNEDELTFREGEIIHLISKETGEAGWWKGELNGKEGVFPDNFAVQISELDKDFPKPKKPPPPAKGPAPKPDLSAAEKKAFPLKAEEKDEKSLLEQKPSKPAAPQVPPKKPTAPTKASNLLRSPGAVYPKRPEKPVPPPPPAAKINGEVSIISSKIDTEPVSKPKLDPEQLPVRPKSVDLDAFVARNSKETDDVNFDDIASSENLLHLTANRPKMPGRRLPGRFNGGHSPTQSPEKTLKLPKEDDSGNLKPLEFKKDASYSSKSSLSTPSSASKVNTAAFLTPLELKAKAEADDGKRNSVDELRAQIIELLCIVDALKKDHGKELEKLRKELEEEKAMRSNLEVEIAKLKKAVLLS

Substance: purified cathepsin L enzyme (Sigma, specific activity 4.13 U/mg)
- in vitro cleavage assay, immunoblot [1]: In absence of this cleavage site, the characteristic p32 fragment was no longer observed after enzymatic digest with cathepsin L enzyme
- in vitro cleavage assay, immunoblot [2]: At neutral pH, CD2AP was cleaved into a stable 55 kD fragment as detected with an anti-GFP antibody
- in vitro cleavage assay, silver stain (purified FLAG-CD2AP): cleavage assays performed at neutral conditions (pH 7.0) yielded a stable 32 kD CD2AP fragment (p32)
- in vitro cleavage assay, immunoblot [3]: This experiment yielded a C-terminal 44 kD fragment of CD2AP; the anti-FLAG antibody also detected a strong band corresponding to p32 fragment

— patent US20110236397
